Reference: publication PMC3781837

Target: WhiA (Streptomyces venezuelae) (UniProt F2RGQ4)
Test: DNase I footprinting
Conditions: DNase I footprinting per Sure Track kit (Amersham); buffer, salt, pH and temperature not given in the material

Sequence of UniProt F2RGQ4 (F2RGQ4 whole entry): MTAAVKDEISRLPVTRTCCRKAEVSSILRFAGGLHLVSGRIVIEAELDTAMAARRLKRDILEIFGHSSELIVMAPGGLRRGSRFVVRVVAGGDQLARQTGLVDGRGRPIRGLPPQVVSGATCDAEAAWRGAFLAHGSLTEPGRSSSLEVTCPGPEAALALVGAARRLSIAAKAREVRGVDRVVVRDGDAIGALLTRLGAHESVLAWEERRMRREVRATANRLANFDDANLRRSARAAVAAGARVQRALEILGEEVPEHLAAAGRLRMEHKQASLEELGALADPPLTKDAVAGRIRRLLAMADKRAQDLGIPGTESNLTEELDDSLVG

Row | Sequence | binding
1 | AGCATCCGGTGCACCCTCCCAGTGTCGCACCCGAAGGTGTCGAATCCCGGGAGTGGGCCCGCCGCGACACGCGGAGGGCCCGGAATCGCCTTTAACCCAAGATCTAGTGGTTGGATGGCATCGG (double strand) [nrdR promoter probe] | binds
2 | CCGGAATTCCCACTCAAAAGGCTGGACATTCTCCAGATCAAACGGGCATACGCTCGATGACACGCCGCTTCGGCCCCTAGGATTCCCTCTAACACCTCACCGGTCTCATTCGACAGGAAACCCATGAGCGACACATCCTCCCCCTTCGGCTTCGAGCTCGTGCGGCGCGGTTAGGATCCGCG (double strand) [filP promoter probe] | binds
3 | GAACTGGTGGAGAAGTCGGCGAAGCGCTTGCGCGGGGCCGTCCTGATCGGTGCCGACCGCGCCCTGATCCGCGAAGCCCTGGCGCGACACGCCCCGGAGGTACCGGTGGTGGACCTCGACCGGACCGACACTGGGGCGATGTCCGAGGCGGTC (double strand) [ftsW promoter probe] | binds
4 | GACATACCCACTCGGACTACTCCAGTCGACACGCCGAGGGTTTGCCCCTTTTGTAGGGATATCGACCCGTTCGACGACAGCTGGAGGCACCGTGCGGCCGGGAGGCTACGACTACGACAC (double strand) [cslA promoter probe] | binds
5 | GACGTGCCGCGCATCCGGGCGGCCACGGACCTGGGCAACGTCCCGATGGCCGCGGCGTTCGCCCGGGCGGGTTACGACGCCTTCGAGCACGCGATCAACTACGTGTGGGACGCGCCGGGCGTGGCGGGTCCCTGACTGCCAGGATGGGGGCGTAGGTCCGTCGACGAGGGGATTTGGCGTGCTCTTCGAGGTGTGGGC (double strand) [treZ promoter probe] | binds
6 | GCGCCGCAGCCCGGAGAAACCGAGGGCTTCTCCCCGCAGCGTCATTTGGAGGTTTTGGGACGACACGCCCCTAAACTCGCCCTGGACGTGGTGCTGGCCGACGAGGCCGCCGTGCCCGACCGCGAGTCCCTCGCCGACGCCGCCAAGCGGCTCGGTGCCGC (double strand) [whiAp2 promoter probe] | binds
7 | GCTGCTCCACTCCACCAACGTAGGTCGGGAAGGGGCGGGAACCGGGTCCGGGACACGCCCTTTGGGTGACCTTGCCCCCGAGAACGACCGAAGGTCGGCGTCG (double strand) [sven4724-sven4725 intergenic probe] | binds
8 | GGCGGTACGGGAGCGGCCGACGCAGACTGGGAGGAGCGCCCTCTTTCCCGGAGTGCTGGAGGAACCACGGTATGACCGACCTCGCCATCGAGACCGAGGGCCTGGTCAAGGTCTTCGGCAGCAACCGCGCCGTCGACGGGATCGACCTCCGCGTCCCCGCCGGAATCGTCTACGGAGTCCTTGGCCCCAACGGCGC (double strand) [sven3535 promoter probe] | no binding
9 | GTCTCGCGCATGTGAGGGGCGGTGCCGCGCGGGGCACCGGGCCCGGCGGGCCCGGGCCGCACCGACGCGCCGGAATGATCGCTAAGAGGAAATTGTCCGATTAGCGCGTATCGTCGGCCCATGCCCACGCCATACGGATCCCGCGGCGGCATGGCGTTCAGCGCGGACGAGCTGCGTGTGCTCCGCCGTGCCCTCGCCATC (double strand) [sven3229 promoter probe] | no binding
